Assay results: patent US9713649

Target: Prostate specific membrane antigen (PSMA) (UniProt Q04609)
Assay: competitive binding on LNCaP or PC3-PIP cells; displacement of 12 nM N-[N-[(S)-1,3-dicarboxypropyl]carbamoyl]-S-[3H]-methyl-L-cysteine, scintillation counting

Sequence of Prostate specific membrane antigen (PSMA) (Q04609 whole entry): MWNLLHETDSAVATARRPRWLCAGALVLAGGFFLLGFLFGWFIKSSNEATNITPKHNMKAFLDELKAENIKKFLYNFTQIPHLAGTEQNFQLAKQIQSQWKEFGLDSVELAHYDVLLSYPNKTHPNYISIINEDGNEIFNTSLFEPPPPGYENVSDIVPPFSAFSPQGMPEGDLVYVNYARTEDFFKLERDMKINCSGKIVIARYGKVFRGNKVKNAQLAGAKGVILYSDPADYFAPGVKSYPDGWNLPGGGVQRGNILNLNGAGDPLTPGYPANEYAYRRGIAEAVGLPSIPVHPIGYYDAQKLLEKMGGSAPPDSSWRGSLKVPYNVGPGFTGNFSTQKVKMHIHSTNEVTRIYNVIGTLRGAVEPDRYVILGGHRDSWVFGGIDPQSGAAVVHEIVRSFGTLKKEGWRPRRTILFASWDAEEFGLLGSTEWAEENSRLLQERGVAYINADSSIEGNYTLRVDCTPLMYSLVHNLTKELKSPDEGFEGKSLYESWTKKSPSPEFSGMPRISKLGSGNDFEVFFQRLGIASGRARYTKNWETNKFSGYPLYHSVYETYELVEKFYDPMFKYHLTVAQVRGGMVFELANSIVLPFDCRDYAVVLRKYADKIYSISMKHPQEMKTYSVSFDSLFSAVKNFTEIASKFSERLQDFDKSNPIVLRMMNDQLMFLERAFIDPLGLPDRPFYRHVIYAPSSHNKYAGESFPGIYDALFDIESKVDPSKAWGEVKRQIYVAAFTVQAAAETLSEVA

IC50: 2.2 nM
Substance: ZJ-MCC-Ahx-dEdEdEG (Compound 1) (peptide)
